According to PMC1142346:

B1: A/B partial duplex (23mer duplex with ss tails), fluorescent (dsDNA)
DNA 1: GCACTGGCCGTCGTTTTACGGTCGTGACTGGGAAAACCCTGGCG
DNA 2: TTTTTTTTTTTTTTTTTTTTTTAGCCGTAAAACGACGGCCAGTGC

Experiments:
Assay in all cases: fluorescence anisotropy
[1] = molecular target: BLM642-1290 C1055N (Homo sapiens, UniProt P54132 642-1290, C1055N)
[2] = molecular target: BLM642-1290 C1055N/C1063N (Homo sapiens, UniProt P54132 642-1290, C1055N;C1063N)
[3] = molecular target: BLM642-1290 C1063N (Homo sapiens, UniProt P54132 642-1290, C1063N)
[4] = molecular target: BLM642-1290 WT (Homo sapiens, UniProt P54132 642-1290)
[5] = molecular target: BLM642-1290 zinc-demetalated (WTzn-) (Homo sapiens, UniProt P54132 642-1290)
Chain of BLM642-1290 zinc-demetalated (WTzn-) (P54132 642-1290): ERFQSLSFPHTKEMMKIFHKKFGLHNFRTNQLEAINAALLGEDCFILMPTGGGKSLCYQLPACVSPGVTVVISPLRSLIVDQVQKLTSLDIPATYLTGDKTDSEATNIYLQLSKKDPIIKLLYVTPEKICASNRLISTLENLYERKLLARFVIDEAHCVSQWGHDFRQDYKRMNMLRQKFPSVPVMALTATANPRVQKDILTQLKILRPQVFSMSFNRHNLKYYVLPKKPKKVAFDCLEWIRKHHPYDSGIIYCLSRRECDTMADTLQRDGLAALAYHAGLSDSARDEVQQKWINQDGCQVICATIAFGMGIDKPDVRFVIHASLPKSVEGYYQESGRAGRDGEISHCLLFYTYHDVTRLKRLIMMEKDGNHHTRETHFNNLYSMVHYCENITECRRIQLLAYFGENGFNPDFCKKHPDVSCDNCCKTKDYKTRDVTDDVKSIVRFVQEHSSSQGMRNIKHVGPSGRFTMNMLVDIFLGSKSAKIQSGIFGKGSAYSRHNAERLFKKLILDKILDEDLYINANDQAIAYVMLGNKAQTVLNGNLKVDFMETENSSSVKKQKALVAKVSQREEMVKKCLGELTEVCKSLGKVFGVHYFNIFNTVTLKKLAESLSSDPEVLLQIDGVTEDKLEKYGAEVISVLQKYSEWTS

Chain of BLM642-1290 C1063N (P54132 642-1290 C1063N): as the sequence (P54132 642-1290) above, with C422N counted along it
Chain of BLM642-1290 WT (P54132 642-1290): as the sequence (P54132 642-1290) above
Chain of BLM642-1290 C1055N (P54132 642-1290 C1055N): as the sequence (P54132 642-1290) above, with C414N counted along it
Chain of BLM642-1290 C1055N/C1063N (P54132 642-1290 C1055N/C1063N): as the sequence (P54132 642-1290) above, with C414N, C422N counted along it

Row | Binder | Kd [1] [nM] | Kd [2] [nM] | Kd [3] [nM] | Kd [4] [nM] | Kd [5] [nM]
1 | B1 | 56 ± 1.8 | 209 ± 3.5 |  |  | 
2 | GGGTTAGGGTTAGGGTTAGGG (structured_DNA) [F21 G4 DNA] |  |  | 1990 | 4.57 | 4.85
